Reference: the supplement of paper PMC10567573

B1: PTPRD (parent)
chain: ELDELLKEISRKRRSIRYGREVEL

Variants of: B1
Test: protein stability index of a GFP-peptide fusion (GPS, HEK-293T) (PSI 1-6); higher = more stable
Conditions: c terminus: a fixed tail appended
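Note: lentivirally expressed fusions sorted by FACS into six bins by GFP to DsRed ratio, PSI derived from sequencing read proportions per bin multiplied by bin number.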

Variant	protein stability index
ELDELLKEISRKRRSIRYGREFEL [V22F]	2.22
ELDELLKEISRKRRSIRYGREHEL [V22H]	2.88
ELDELLKEISRKRRSIRYGREDEL [V22D]	2.96
ELDELLKEISRKRRSIRYGREWEL [V22W]	2.39
ELDELLKEISRKRRSIRYGREKEL [V22K]	2.34
ELDELLKEISRKRRSIRYGREYEL [V22Y]	2.27
ELDELLKEISRKRRSIRYGREMEL [V22M]	2.85
ELDELLKEISRKRRSIRYGREPEL [V22P]	2.04
ELDELLKEISRKRRSIRYGREAEL [V22A]	1.82
ELDELLKEISRKRRSIRYGREIEL [V22I]	2.17
ELDELLKEISRKRRSIRYGRESEL [V22S]	2.79
ELDELLKEISRKRRSIRYGRETEL [V22T]	2.52
ELDELLKEISRKRRSIRYGRENEL [V22N]	2.35
ELDELLKEISRKRRSIRYGRELEL [V22L]	2.14
ELDELLKEISRKRRSIRYGREQEL [V22Q]	2.5
ELDELLKEISRKRRSIRYGREREL [V22R]	2.46
ELDELLKEISRKRRSIRYGREGEL [V22G]	2.64
ELDELLKEISRKRRSIRYGREEEL [V22E]	3.18
ELDELLKEISRKRRSIRYGRECEL [V22C]	2.29
ELDELLKEISRKRRSIRVGREVEL [Y18V]	1.95
ELDELLKEISRKRRSIRWGREVEL [Y18W]	1.84
ELDELLKEISRKRRSIRYGREVCL [E23C]	1.96
ELDELLKEISRKRRSIRYGREVTL [E23T]	2.34
ELDELLKEISRKRRSIRYGREVKL [E23K]	1.74

Variant	protein stability index
ELDELLKEISRKRRSIRYGREVSL [E23S]	2.47
ELDELLKEISRKRRSIRYGREVNL [E23N]	2.54
ELDELLKEISRKRRSIRYGREVRL [E23R]	2.17
ELDELLKEISRKRRSIRYGREVIL [E23I]	2.38
ELDELLKEISRKRRSIRYGREVAL [E23A]	2.31
ELDELLKEISRKRRSIRYGREVML [E23M]	2.08
ELDELLKEISRKRRSIRYGREVVL [E23V]	2.57
ELDELLKEISRKRRSIRYGREVFL [E23F]	2.05
ELDELLKEISRKRRSIRYGREVLL [E23L]	2.85
ELDELLKEISRKRRSIRYGREVGL [E23G]	2.41
ELDELLKEISRKRRSIRYGREVHL [E23H]	2.51
ELDELLKEISRKRRSIRYGREVDL [E23D]	2.12
ELDELLKEISRKRRSIRYGREVPL [E23P]	2.56
ELDELLKEISRKRRSIRYGREVQL [E23Q]	2.25
ELDELLKEISRKRRSIRYGTEVEL [R20T]	2.45
ELDELLKEISRKRRSIRYGLEVEL [R20L]	1.84
ELDELLKEISRKRRSIRYGCEVEL [R20C]	2.01
ELDELLKEISRKRRSIRYGPEVEL [R20P]	2.49
ELDELLKEISRKRRSIRYGEEVEL [R20E]	2.71
ELDELLKEISRKRRSIRYGMEVEL [R20M]	2.02
ELDELLKEISRKRRSIRYGDEVEL [R20D]	3.33
ELDELLKEISRKRRSIRYGYEVEL [R20Y]	1.89
ELDELLKEISRKRRSIRYGFEVEL [R20F]	1.64
ELDELLKEISRKRRSIRYGHEVEL [R20H]	2.08

Variant	protein stability index
ELDELLKEISRKRRSIRYGAEVEL [R20A]	2.85
ELDELLKEISRKRRSIRYGNEVEL [R20N]	2.8
ELDELLKEISRKRRSIRYGKEVEL [R20K]	2.17
ELDELLKEISRKRRSIRYGWEVEL [R20W]	1.43
ELDELLKEISRKRRSIRYGIEVEL [R20I]	2.11
ELDELLKEISRKRRSIRYGQEVEL [R20Q]	2.42
ELDELLKEISRKRRSIRYGGEVEL [R20G]	2.23
ELDELLKEISRKRRSIRYGSEVEL [R20S]	3.33
ELDELLKEISRKRRSIRYGVEVEL [R20V]	1.8
ELDELLKEISRKRRSIRYGRVVEL [E21V]	1.86
ELDELLKEISRKRRSIRYGRCVEL [E21C]	2.55
ELDELLKEISRKRRSIRYGRRVEL [E21R]	2.23
ELDELLKEISRKRRSIRYGRSVEL [E21S]	1.86
ELDELLKEISRKRRSIRYGRTVEL [E21T]	3.01
ELDELLKEISRKRRSIRYGRKVEL [E21K]	2.09
ELDELLKEISRKRRSIRYGRAVEL [E21A]	2.16
ELDELLKEISRKRRSIRYGRLVEL [E21L]	2.12
ELDELLKEISRKRRSIRYGRQVEL [E21Q]	2.13
ELDELLKEISRKRRSIRYGRNVEL [E21N]	1.93
ELDELLKEISRKRRSIRYGRIVEL [E21I]	1.82
ELDELLKEISRKRRSIRYGRYVEL [E21Y]	2.15
ELDELLKEISRKRRSIRYGRFVEL [E21F]	2.22
ELDELLKEISRKRRSIRYGRPVEL [E21P]	2.71
ELDELLKEISRKRRSIRYGRDVEL [E21D]	1.79

Variant	protein stability index
ELDELLKEISRKRRSIRYGRHVEL [E21H]	2.06
ELDELLKEISRKRRSIRYGRGVEL [E21G]	2.22
ELDELLKEISRKRRSIRYGRMVEL [E21M]	1.86
ELDELLKEISRKRRSIRYRREVEL [G19R]	1.96
ELDELLKEISRKRRSIRYAREVEL [G19A]	2.34
ELDELLKEISRKRRSIRYHREVEL [G19H]	2.41
ELDELLKEISRKRRSIRYLREVEL [G19L]	2.13
ELDELLKEISRKRRSIRYEREVEL [G19E]	2.71
ELDELLKEISRKRRSIRYDREVEL [G19D]	2.22
ELDELLKEISRKRRSIRYFREVEL [G19F]	1.71
ELDELLKEISRKRRSIRYYREVEL [G19Y]	2.1
ELDELLKEISRKRRSIRYIREVEL [G19I]	2.05
ELDELLKEISRKRRSIRYMREVEL [G19M]	2.41
ELDELLKEISRKRRSIRYSREVEL [G19S]	2.04
ELDELLKEISRKRRSIRYTREVEL [G19T]	2.37
ELDELLKEISRKRRSIRYVREVEL [G19V]	3.13
ELDELLKEISRKRRSIRYQREVEL [G19Q]	2.33
ELDELLKEISRKRRSIRYPREVEL [G19P]	2.17
ELDELLKEISRKRRSIRYCREVEL [G19C]	2.7
ELDELLKEISRKRRSIRYNREVEL [G19N]	2.47
ELDELLKEISRKRRSIRYKREVEL [G19K]	2.06
ELDELLKEISRKRRSIRYWREVEL [G19W]	2.9
